From doi:10.1101/2023.11.17.567546

Legend:
[1] = molecular target: Hfq (UniProt P0A6X3); assay: EMSA
[2] = molecular target: Hfq (UniProt P0A6X3); assay: lead acetate footprinting

Hfq, sequence (P0A6X3 whole entry): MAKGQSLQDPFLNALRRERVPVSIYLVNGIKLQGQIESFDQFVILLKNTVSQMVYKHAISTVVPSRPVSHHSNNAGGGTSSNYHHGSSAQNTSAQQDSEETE

“GCGCCAACGUCGCAUCUGGUUCUCAUCAUCGCGUAAUAUUGAUGAAACCUGCGGCAUCCUUCUUCUAUUGUGGAUGCUUUACAAUGAUUAAAAAAGCUUCGCUGCUGACGGCGUGUUCCGUCACGGCAUUUUCCGCUUGGGCACAGGAUACCAGCCCGGAUACUCUCGUCGUUACUGCUAACCGUUUUGAACAGCCGCGCAGCACUGUGCUUGCACCAACCACCGUUGUGACCCGUCAGGAUAU [btuB mRNA -80 to +161]” was tested, and the binding [1] was “binds” and the binding [2] was “binds”.
